Data published in patent US20140287433A1.

Tests used:
[1] = target: VAMPtide (o-Abz/Dnp) (List Biological Laboratories, Inc.); test: cell-based or functional assay
[2] = target: GST-Synaptotagmin II (SytII) fusion protein (rat)
[3] = target: PL150 (Pharmaleads): [(Ac-60-94)VAMP](Pya74,Nop77); test: cell-based or functional assay

| Substance | limit of detection of the toxin by VAMPtide cleavage [1] | increase of binding at pH 5.2 against pH 7.2 [2] | lowest toxin concentration detected by substrate cleavage (fluorescence) [1] | lowest toxin concentration detected by substrate cleavage (fluorescence) [3] |
| --- | --- | --- | --- | --- |
| BoNT/B complex from C. botulinum strain Okra B (Metabiologics Inc.) (from UniProt B1INP5 2-1291) | 5 nM | – | – | – |
| purified 150 kDa BoNT/B from C. botulinum strain Okra B (Metabiologics Inc.) | 2 nM | 100% | 2 nM | 10 pM |
